Patent publication WO2022102744A1 (dated 2022)

Biological target: T1, SARS-CoV-2 spike protein (full S1 and S2 regions, furin recognition sequence removed, histidine tag) (SARS-CoV-2, UniProt P0DTC2 14-1273)
T1 construct: whole, on cells; also called Exo-S; spike protein positive exosome
Assay: competition ELISA: ACE2 on plate, Exo-S with titrated antibody; competitor ACE2

B1: anti-spike protein monoclonal antibody clone A1-1C7 (antibody, V domains shown)
VH: EVQLQQSGTELVTPGASVKLSCTASGFNIKDTYVQWVKQRPEQGLEWIGRIDPASDNTFYASKFQGKASLSSDTSSNTAYMQLSSLTSGDTAVYYCSTYFSNFYYWGQGTPLTVSS
VL: DIQMTQSPASLSASVGDTVTITCGASENIYGALNWYQRKKGKSPQLLIYGATNLADGMSSRFSGRGSGRQYFLKISSLHPDDVATYYCQNVLSVPWTFGGGTKLEIK
notes: also called MAb2B (related to clone A1-1C7)
  IC50: 4.8 ng/mL
